Data from patent US20160031978.

Molecular target: Δ144-273 tau (full-length tau with deletion of amino acids 144-273) (UniProt P10636)
Sequence (P10636 whole entry, looked up, stated change not applied, the tested form may be a part): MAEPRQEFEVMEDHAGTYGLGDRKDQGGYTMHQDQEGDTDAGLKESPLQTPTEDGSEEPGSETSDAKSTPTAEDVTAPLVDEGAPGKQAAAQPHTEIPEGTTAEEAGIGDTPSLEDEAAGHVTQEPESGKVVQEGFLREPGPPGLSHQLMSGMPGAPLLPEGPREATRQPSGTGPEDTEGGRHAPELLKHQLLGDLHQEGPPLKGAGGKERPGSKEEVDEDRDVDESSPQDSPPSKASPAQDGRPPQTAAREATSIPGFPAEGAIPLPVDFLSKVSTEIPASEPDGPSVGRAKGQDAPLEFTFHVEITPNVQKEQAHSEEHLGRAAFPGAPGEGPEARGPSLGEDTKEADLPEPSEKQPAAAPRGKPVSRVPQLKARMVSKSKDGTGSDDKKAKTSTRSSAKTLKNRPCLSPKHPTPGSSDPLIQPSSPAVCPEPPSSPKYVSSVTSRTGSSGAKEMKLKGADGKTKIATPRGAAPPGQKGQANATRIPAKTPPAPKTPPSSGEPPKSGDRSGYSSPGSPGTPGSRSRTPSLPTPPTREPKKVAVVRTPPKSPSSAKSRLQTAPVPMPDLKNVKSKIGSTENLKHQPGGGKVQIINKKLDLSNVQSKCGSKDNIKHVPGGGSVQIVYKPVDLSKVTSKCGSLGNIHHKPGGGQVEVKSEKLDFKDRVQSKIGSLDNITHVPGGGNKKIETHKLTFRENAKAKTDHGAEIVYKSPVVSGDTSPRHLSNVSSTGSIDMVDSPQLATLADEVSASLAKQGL

active fyn kinase
in vitro phosphorylation at Tyr18 (9G3/R1 immunoblot ratio): When compared to wild-type tau, AT8 tau and A144-273 tau had a slower rate and lower maximal level of phosphorylation at Tyr18
